Tests used:
[1] = target: T1, 129 mouse SIRPα, three extracellular IgSF domains (3d) (mouse, UniProt P97797 32-369, biotin (on the biotinylation sequence)); test: SPR; biotinylated SIRPα variants bound to streptavidin immobilised on a BIAcore CM5 chip, BIAcore 3000, 37°; dilutions of monomeric recombinant CD47 extracellular domain passed over; affinity from equilibrium binding; details: one partner purified
T1 sequence (looked up): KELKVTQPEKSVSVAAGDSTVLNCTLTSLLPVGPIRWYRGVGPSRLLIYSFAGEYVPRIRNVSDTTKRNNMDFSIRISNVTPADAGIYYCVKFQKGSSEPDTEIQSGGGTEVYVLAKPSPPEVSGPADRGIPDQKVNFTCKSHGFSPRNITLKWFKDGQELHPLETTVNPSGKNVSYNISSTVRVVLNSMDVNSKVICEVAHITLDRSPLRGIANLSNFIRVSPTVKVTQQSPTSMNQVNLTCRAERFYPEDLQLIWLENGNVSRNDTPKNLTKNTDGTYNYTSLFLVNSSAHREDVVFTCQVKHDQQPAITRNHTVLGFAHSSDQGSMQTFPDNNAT

[2] = target: T2, C57BL/6 mouse SIRPα, N-terminal domain (d1) (mouse, biotin (on the biotinylation sequence)); test: as above; details: one partner purified
T2 sequence (P97797 whole entry, looked up): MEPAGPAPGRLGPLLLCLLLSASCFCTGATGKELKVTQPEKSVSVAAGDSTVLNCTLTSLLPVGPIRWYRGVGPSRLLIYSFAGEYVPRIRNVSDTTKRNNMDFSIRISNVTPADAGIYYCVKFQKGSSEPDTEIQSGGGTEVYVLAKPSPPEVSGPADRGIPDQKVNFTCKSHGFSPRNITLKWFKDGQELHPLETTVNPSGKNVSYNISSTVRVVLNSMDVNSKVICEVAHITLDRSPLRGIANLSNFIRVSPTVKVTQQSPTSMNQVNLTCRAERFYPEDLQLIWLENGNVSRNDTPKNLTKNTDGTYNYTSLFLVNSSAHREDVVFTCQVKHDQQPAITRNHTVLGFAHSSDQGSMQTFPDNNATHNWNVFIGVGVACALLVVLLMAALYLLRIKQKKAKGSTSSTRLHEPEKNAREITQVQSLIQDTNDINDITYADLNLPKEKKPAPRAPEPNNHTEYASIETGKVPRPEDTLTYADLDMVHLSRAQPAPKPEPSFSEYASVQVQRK

Kd [1]: 2.5 µM
Kd [2]: 5.3 µM
B1: mouse CD47 IgSF domain, monomeric recombinant extracellular domain (domain or fragment)
chain: QLLFSNVNSIEFTSGNETVVIPCIVRNVEAQSTEEMFVKWKLNKSYIFIYDGNKNSTTTDQNFTSAKISVSDLINGIASLKMDKRDAMVGNYTCEVTELSREGKTVIELKNRTVSWFSPNE

Source: paper PMC4137956 (Immunology, 2014)
